Source: patent publication US20090324601A1 (published 2009)
Substitutions are numbered along the chain they refer to. Several values for one entry are separate records, joined by “and”; a condition that tells them apart may be missing. Identical values can stand only once.

How the values were obtained:
[1] = molecular target: T1, PDGFR-alpha on human osteosarcoma MG-63 cells (human, UniProt P16234 24-1089); assay: cell-based or functional assay
[2] = molecular target: T2, murine PDGFRa on NIH3T3 cells (murine, UniProt P26618 25-1089); assay: FACS on NIH3T3 cells, 10 ug/ml antibody, goat anti-human IgG Cy5
T2 construct: whole, on cells; also called mouse PDGFR-alpha
T2 sequence (P26618 25-1089): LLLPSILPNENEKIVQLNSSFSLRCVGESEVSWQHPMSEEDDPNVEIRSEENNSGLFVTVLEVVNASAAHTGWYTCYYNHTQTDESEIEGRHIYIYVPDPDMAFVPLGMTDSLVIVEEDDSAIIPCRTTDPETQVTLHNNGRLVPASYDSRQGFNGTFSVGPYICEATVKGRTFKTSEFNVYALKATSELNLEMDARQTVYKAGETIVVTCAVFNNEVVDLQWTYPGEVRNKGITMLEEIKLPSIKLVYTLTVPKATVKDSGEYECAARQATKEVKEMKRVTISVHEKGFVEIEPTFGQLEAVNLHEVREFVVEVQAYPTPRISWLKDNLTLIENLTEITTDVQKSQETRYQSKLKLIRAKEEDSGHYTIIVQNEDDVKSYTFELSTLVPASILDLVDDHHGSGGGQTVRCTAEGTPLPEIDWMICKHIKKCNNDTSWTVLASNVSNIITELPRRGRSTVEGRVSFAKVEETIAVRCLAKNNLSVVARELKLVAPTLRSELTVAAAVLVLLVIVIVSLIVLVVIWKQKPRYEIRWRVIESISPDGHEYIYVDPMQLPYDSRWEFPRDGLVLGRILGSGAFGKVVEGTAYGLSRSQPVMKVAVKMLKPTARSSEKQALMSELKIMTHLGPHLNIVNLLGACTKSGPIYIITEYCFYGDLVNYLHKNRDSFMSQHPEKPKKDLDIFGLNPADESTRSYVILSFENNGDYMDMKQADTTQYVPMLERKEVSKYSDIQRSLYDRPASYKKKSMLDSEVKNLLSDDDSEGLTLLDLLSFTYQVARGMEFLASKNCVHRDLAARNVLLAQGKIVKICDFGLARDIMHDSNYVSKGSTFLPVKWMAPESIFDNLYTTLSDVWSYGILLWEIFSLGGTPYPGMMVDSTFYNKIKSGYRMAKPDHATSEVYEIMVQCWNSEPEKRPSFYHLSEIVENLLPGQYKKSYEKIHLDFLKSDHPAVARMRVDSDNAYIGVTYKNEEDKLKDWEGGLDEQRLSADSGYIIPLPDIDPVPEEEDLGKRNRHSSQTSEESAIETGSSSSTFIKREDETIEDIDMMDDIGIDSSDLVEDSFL

[3] = molecular target: T1, PDGFR-alpha on human osteosarcoma MG-63 …; assay: cell-based or functional assay; remark: listed apart in the source
[4] = molecular target: T3, Recombinant human sPDGFR-alpha (R&D catalog# 322-PR/CF) (human, UniProt P16234 24-528); assay: soluble PDGFRa binding ELISA, plate coated with recombinant human PDGFR-alpha
T3 construct: extracellular domain; Bought reagent; also called soluble PDGFRa; recombinant soluble PDGFR-alpha extracellular domain
T3 sequence (P16234 24-528): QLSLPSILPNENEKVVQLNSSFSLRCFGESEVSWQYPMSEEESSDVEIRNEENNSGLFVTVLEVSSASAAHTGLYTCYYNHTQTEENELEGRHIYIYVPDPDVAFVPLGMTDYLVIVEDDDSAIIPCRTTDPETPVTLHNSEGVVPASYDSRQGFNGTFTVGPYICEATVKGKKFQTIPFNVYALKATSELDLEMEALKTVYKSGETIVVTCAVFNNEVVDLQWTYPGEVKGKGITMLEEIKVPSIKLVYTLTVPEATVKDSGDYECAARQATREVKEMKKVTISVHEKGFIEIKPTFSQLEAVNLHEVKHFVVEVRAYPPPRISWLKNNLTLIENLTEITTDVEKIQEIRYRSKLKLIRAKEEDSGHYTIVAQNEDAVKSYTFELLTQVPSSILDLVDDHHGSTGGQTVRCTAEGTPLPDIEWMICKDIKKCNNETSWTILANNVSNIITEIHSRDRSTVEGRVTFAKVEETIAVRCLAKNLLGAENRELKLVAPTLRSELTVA

[5] = molecular target: T3, Recombinant human sPDGFR-alpha (R&D …); assay: Biacore T100 SPR, 22 C, mAb immobilised on CM5, sPDGFR-alpha injected, 1:1 fit
[6] = molecular target: T2, murine PDGFRa on NIH3T3 cells; assay: FACS on NIH3T3 cells, goat anti-human IgG Cy5
[7] = molecular target: T1, PDGFR-alpha on human osteosarcoma MG-63 …; assay: FACS titration on MG-63 cells, 4 C, Cy5 goat anti-human detection
[8] = molecular target: T4, PDGFR-alpha on MG-63 cells (human, UniProt P16234 24-1089); assay: cell-based or functional assay
T4 sequence (P16234 24-1089): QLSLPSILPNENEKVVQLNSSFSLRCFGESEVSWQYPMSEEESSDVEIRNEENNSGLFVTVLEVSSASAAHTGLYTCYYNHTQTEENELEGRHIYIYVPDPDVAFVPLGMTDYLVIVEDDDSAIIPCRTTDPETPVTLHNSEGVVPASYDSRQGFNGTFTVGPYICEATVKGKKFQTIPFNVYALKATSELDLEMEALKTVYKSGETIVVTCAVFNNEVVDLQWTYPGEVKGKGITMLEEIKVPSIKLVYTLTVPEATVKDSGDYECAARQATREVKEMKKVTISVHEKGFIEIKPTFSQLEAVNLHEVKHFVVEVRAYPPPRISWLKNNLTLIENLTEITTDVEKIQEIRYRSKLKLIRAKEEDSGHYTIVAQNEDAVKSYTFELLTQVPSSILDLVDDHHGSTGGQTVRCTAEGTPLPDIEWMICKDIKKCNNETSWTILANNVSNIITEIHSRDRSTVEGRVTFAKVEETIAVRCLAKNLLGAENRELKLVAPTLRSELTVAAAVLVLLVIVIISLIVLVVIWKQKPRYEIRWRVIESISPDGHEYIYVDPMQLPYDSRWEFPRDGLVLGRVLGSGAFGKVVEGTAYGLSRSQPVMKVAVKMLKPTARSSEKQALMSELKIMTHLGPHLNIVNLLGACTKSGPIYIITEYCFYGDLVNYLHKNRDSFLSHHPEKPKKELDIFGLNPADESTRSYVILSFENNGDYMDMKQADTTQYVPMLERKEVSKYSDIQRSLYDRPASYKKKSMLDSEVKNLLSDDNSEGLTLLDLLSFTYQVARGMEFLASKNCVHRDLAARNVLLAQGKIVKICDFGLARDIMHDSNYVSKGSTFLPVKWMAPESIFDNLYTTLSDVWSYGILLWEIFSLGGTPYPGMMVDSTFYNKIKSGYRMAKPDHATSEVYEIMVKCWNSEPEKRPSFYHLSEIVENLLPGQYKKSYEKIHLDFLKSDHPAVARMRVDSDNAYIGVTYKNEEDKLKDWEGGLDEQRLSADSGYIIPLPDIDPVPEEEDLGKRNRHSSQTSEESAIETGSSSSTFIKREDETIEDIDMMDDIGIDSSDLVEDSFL

[9] = molecular target: T4, PDGFR-alpha on MG-63 cells; assay: cell-based or functional assay; remark: listed apart in the source
[10] = molecular target: T4, PDGFR-alpha on MG-63 cells; assay: FACS titration on MG-63 cells expressing PDGFR-alpha, 4 °C, Cy5 secondary antibody, nonlinear fit of geometric mean fluorescence
PDGFR-beta = PDGFR-beta (UniProt P09619 33-530, limits assumed); assay: method not described
PDGFR-beta, sequence (P09619 33-530 limits assumed): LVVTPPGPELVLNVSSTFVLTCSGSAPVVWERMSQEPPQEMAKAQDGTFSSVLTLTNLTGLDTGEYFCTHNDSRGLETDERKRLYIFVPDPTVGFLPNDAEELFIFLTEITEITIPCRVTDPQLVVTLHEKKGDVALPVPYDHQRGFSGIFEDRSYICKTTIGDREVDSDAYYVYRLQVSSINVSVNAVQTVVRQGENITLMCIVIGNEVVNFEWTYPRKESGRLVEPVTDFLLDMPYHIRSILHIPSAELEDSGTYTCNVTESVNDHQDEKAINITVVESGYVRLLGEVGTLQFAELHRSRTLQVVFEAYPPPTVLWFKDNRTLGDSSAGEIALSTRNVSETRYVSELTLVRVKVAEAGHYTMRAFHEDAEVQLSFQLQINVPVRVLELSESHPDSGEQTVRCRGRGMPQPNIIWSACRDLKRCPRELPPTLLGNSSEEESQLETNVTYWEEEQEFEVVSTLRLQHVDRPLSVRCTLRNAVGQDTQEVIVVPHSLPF

FLT3 = FLT3 (UniProt P36888 27-541, limits assumed); assay: method not described
c-kit = c-kit (UniProt P10721 26-520, limits assumed); assay: method not described
c-kit, sequence (P10721 26-520 limits assumed): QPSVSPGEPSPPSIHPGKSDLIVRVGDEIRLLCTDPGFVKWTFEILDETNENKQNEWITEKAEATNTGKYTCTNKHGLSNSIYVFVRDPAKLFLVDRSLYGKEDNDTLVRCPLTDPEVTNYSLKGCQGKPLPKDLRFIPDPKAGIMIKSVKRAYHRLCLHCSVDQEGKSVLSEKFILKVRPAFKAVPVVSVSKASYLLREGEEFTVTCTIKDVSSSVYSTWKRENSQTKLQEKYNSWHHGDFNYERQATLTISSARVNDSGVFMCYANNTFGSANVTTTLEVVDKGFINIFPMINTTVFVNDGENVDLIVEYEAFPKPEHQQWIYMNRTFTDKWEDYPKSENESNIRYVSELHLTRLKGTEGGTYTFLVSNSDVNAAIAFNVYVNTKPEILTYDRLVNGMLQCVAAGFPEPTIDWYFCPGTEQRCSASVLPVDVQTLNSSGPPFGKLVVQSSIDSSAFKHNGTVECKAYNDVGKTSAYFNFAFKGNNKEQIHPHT

CSF-1R = CSF-1R (UniProt P07333 20-512, limits assumed); assay: method not described
CSF-1R, sequence (P07333 20-512 limits assumed): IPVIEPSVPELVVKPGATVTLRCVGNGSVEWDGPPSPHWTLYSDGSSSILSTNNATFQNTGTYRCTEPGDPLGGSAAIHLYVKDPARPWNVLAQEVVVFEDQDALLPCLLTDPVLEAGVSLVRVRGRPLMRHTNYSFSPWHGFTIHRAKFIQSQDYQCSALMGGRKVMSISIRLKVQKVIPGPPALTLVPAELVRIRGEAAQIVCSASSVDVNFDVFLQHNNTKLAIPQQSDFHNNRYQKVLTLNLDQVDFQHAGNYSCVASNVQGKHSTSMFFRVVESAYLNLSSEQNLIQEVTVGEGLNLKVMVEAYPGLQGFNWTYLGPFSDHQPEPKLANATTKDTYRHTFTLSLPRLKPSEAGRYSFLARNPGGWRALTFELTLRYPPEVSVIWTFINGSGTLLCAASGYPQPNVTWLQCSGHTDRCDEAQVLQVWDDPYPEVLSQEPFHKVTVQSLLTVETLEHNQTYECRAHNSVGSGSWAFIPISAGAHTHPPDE

[11] = molecular target: T5, Mouse PDGFRa on NIH3T3 cells (mouse, UniProt P26618 25-1089); assay: FACS on NIH3T3 cells, 10 ug/ml antibody
T5 construct: whole, on cells; also called endogenous PDGFRa of NIH3T3 murine fibroblasts
T5 sequence (P26618 25-1089): as the sequence (P26618 25-1089) above

T1 sequence (P16234 24-1089): as the sequence (P16234 24-1089) above

B1: 2.1623.2 (antibody, V domains shown)
VH: QVQLVESGGGLVKPGGSLRLSCAASGFTFSDYYMNWIRQAPGKGLEWVSFISSSGSTIYYADSVKGRFTISRDNAKNSLYLQMNSLRAEDTAVYYCARDGHIAARGMDVWGQGTTVTVSS
VL: DIQMTQSPSSLSASVGDRVTITCRASQSFSRYINWYQQKPGKAPKLLIYAASSLQGGVPSRFSGSGSGTDFTLAISSLQPEDFATYYCQQTYSTPPITFGQGTRLEIK
Q: What does the source list for B1?
A: Proliferation Assay: IC50 ng/ml (1-6-06) [1]: 755 ng/mL; Proliferation Assay: IC50 ng/ml (1-23-06) [1]: 982 ng/mL; pTyr Assay: % Inhibition @ 2 µg/ml [1]: 97%; binding result [2]: binds

B2: 2.1853.3 (antibody, V domains shown)
VH: B1 VH with F50Y, T57I, H101R, A103V
VL: B1 VL with S12C, Q27R, F29I, S30T, I33L, A50G, G56S, A74T, T91S
Q: For B2, which “Proliferation Assay: IC50 ng/ml (1-6-06)” value [1] is on record?
A: 1120 ng/mL

Q: What about the “Proliferation Assay: IC50 ng/ml (1-23-06)” value [1] of the same binder?
A: 2680 ng/mL

Q: What about the “pTyr Assay: % Inhibition @ 2 µg/ml” value [1] of the same binder?
A: 98%

Q: Does B2 bind [2]?
A: binds

B3: 2.175.3 variant A (antibody, V domains shown)
VH: QVQLVESGGGLVKPGGSLRLSCAASGFTFSDYYMHWIRQAPGKGLEWVSYISRSGSLIYYVDSVKGRFTISRDNAKNSLYLQMNSLRAEDTAVYYCARGGPYSGSPFDYWGQGTLVTVSS
VL: DIQMTQSPSSLSASVGDRVTITCRPSQRISRYLNWYQQKPGKAPKLLIYAASSLPSGVPSRFSGSGSGTDFTLTISSLQPEDFATYYCQQSYSTPPWTFGQGTKVEIK
Q: With B3 as the binder, how does the “PTYR Assay IC50” value [3] read?
A: 0.029 mg/L

Q: What about the IC50 [4] of the same binder?
A: 0.046 mg/L

Q: And the Kd [5]?
A: 0.0071 nM

Q: And the koff [5]?
A: 2.53e-06 s⁻¹

Q: And the kon [5]?
A: 355000 M⁻¹ s⁻¹

B4: 2.449.1 variant A (antibody, V domains shown)
VH: B1 VH with F50Y, T57I, D99E, H101R
VL: B1 VL with T20S, A25P, Q55V, A74T, T94N
notes: also called 2.449.1.3 Variant A; 2.449.1.3 variant A
Q: With B4 as the binder, how does the “PTYR Assay IC50” value [3] read?
A: 0.031 mg/L

Q: What about the IC50 [4] of the same binder?
A: 0.045 mg/L

Q: And the Kd [5]?
A: 0.0086 nM

Q: And the koff [5]?
A: 3.8e-06 s⁻¹

Q: And the kon [5]?
A: 440000 M⁻¹ s⁻¹

B5: 2.449.1.3 (antibody, V domains shown)
VH: B1 VH with F50Y, T57I, D99E, H101R
VL: B1 VL with T20S, A25P, Y49H, Q55V, A74T, T94N, I107M
notes: identified by its values; also called mAb 2.449.1.3
Q: For B5, which “Proliferation Assay: IC50 ng/ml (1-6-06)” value [1] is on record?
A: 179 ng/mL

Q: What about the “Proliferation Assay: IC50 ng/ml (1-23-06)” value [1] of the same binder?
A: 237 ng/mL

Q: And the “Proliferation Assay: IC50 (1-6-06)” value [1]?
A: 1.2 nM

Q: What about the “Proliferation Assay: IC50 (1-23-06)” value [1] of the same binder?
A: 1.57 nM

Q: And the “pTyr Assay: % Inhibition @ 2 µg/ml” value [1]?
A: 99%

Q: And the “PTYR Assay IC50” value [3]?
A: 0.021 mg/L

Q: Does B5 bind [6]?
A: no binding (tested: 10 ug/ml)

Q: And the Kd [7]?
A: 0.052 nM

Q: And the IC50 [4]?
A: 0.044 mg/L

Q: And the Kd [5]?
A: 0.14 nM

Q: What about the koff [5] of the same binder?
A: 6.16e-05 s⁻¹

Q: And the kon [5]?
A: 440000 M⁻¹ s⁻¹

B6: 2.998.2 (antibody, V domains shown)
VH: QLQLQESGPGLVKPSETLSLTCTVSGDSISSFIYYWGWIRQPPGKGLEWIGTIYYSGSTYYNPSLKSRVTISVDTSKNQFSLKLRSVTAADTAVYYCARHHWVFDYWGQGTQVTVSS
VL: DIVLTQFPDFQSVTPKEKVTITCRASQVIGSSLHWYQQKPDQSPKLLIKYASQSFSGVPSRFSGSGSGTDFTLTINSLEVEDAATYYCHQSTILPWTFGQGTKVEVK
notes: identified by its values; also called mAb 2.998.2
Q: How did the “Proliferation Assay: IC50 ng/ml (1-6-06)” value [1] turn out when B6 was run?
A: 308 ng/mL

Q: And the “Proliferation Assay: IC50 ng/ml (1-23-06)” value [1]?
A: 316 ng/mL

Q: And the “Proliferation Assay: IC50 (1-6-06)” value [1]?
A: 2.05 nM

Q: And the “Proliferation Assay: IC50 (1-23-06)” value [1]?
A: 2.1 nM

Q: And the “pTyr Assay: % Inhibition @ 2 µg/ml” value [1]?
A: 99%

Q: Does B6 bind [6]?
A: no binding (tested: 10 ug/ml)

Q: And the Kd [7]?
A: 0.057 nM

Q: And the Kd [5]?
A: 0.164 nM

Q: And the koff [5]?
A: 4.89e-05 s⁻¹

Q: And the kon [5]?
A: 298000 M⁻¹ s⁻¹

B7: 2.84.3 (antibody, V domains shown)
VH: B6 VH with D27G, S28F, F32S, I33S, S58T, P63S, K77Q, R85S, Q112L
VL: EVVLTQSPDFQSVTPKEKITITCRASQIIGTSLHWYQKKPDQSPKLLIKYASQSFSGVPSRFSGSGSGTEFTLTINSLEAEDTATYYCHQSTNLPWTFGQGTKVEIK
Q: B7 was tested. Which “Proliferation Assay: IC50 ng/ml (1-6-06)” value [1] did it give?
A: 192 ng/mL

Q: What about the “Proliferation Assay: IC50 ng/ml (1-23-06)” value [1] of the same binder?
A: 481 ng/mL

Q: And the “Proliferation Assay: IC50 (1-6-06)” value [1]?
A: 1.3 nM

Q: What about the “Proliferation Assay: IC50 (1-23-06)” value [1] of the same binder?
A: 3.2 nM

Q: And the “pTyr Assay: % Inhibition @ 2 µg/ml” value [1]?
A: 98%

Q: Does B7 bind [6]?
A: no binding (tested: 10 ug/ml)

Q: And the Kd [7]?
A: 0.227 nM

B8: 2.351.3 (antibody, V domains shown)
VH: QVQLVQSGAEVKKPGASVKVSCKASGYTFIGYYLHWVRQAPGQGLEWMGSINPNSGGTNYAQKFQGRVTMIRDTSINTAYMELSRLRSDDTAVYYCARDKRITMVRGVHYLYYGWDVWGQGTTVTVSS
VL: DIQMTQSPSSLSASVGDRVTITCRASQVISNYLAWYQQKPGKVPQLLIYAASTLQSGVPSRFSGSGSGTDFTLTISSLQPEDVATYYCQNYKSAPWTFGQGTKVEIK
Q: B8 was tested. Which “Proliferation Assay: IC50 ng/ml (1-6-06)” value [1] did it give?
A: 1080 ng/mL

Q: What about the “Proliferation Assay: IC50 ng/ml (1-23-06)” value [1] of the same binder?
A: 649 ng/mL

Q: And the “pTyr Assay: % Inhibition @ 2 µg/ml” value [1]?
A: 97%

Q: Does B8 bind [6]?
A: no binding (tested: 10 ug/ml)

B9: 2.175.3 (antibody, V domains shown)
VH: B3 VH with Q3H, Y80N
VL: B3 VL with L46F, S77T
Q: With B9 as the binder, how does the “Average pTyr Inhibition” value [8] read?
A: 99%

Q: What about the “PROLIFERATION ASSAY: MG-63 CELLS, IC50” value [9] of the same binder?
A: 0.37 nM

Q: What about the Kd [10] of the same binder?
A: 0.328 nM

B10: 2.998.2 (antibody, V domains shown)
VH: B6 VH
VL: B6 VL
Q: How did the “Average pTyr Inhibition” value [8] turn out when B10 was run?
A: 99%

Q: What about the “PROLIFERATION ASSAY: MG-63 CELLS, IC50” value [9] of the same binder?
A: 2.1 nM

Q: And the Kd [10]?
A: 0.057 nM

B11: 2.449.1.3 (antibody, V domains shown)
VH: B1 VH with F50Y, T57I, D99E, H101R
VL: B1 VL with T20S, A25P, Y49H, Q55V, A74T, T94N, I107M
notes: also called 2.449.1.3 (control)
Q: Which results are given for B11?
A: Average pTyr Inhibition [8]: 99%; PROLIFERATION ASSAY: MG-63 CELLS, IC50 [9]: 1.57 nM; Kd [10]: 0.052 nM and 0.053 nM

B12: 2.84.3 (antibody, V domains shown)
VH: B6 VH with D27G, S28F, F32S, I33S, S58T, P63S, K77Q, R85S, Q112L
VL: B7 VL
Q: With B12 as the binder, how does the “Average pTyr Inhibition” value [8] read?
A: 98%

Q: And the “PROLIFERATION ASSAY: MG-63 CELLS, IC50” value [9]?
A: 481 ng/ml and 3.2 nM

Q: What about the Kd [10] of the same binder?
A: 0.227 nM

B13: 2.175.3 (antibody, V domains shown)
VH: B3 VH with Q3H, Y80N
VL: B3 VL with L46F, S77T
notes: Variable regions only
Q: Does B13 bind (PDGFR-beta)?
A: no binding

Q: Does B13 bind (FLT3)?
A: no binding

Q: Does B13 bind (c-kit)?
A: no binding

Q: Does B13 bind (CSF-1R)?
A: no binding

Q: Does B13 bind [11]?
A: binds

B14: 2.1623.2 (antibody, V domains shown)
VH: B1 VH
VL: B1 VL
notes: Variable regions only
Q: Does B14 bind (PDGFR-beta)?
A: no binding

Q: Does B14 bind (FLT3)?
A: no binding

Q: Does B14 bind (c-kit)?
A: no binding

Q: Does B14 bind (CSF-1R)?
A: no binding

Q: Does B14 bind [11]?
A: binds

B15: 2.1853.3 (antibody, V domains shown)
VH: B1 VH with F50Y, T57I, H101R, A103V
VL: B1 VL with S12C, Q27R, F29I, S30T, I33L, A50G, G56S, A74T, T91S
notes: Variable regions only
Q: Does B15 bind (PDGFR-beta)?
A: no binding

Q: Does B15 bind (FLT3)?
A: no binding

Q: Does B15 bind (c-kit)?
A: no binding

Q: Does B15 bind (CSF-1R)?
A: no binding

Q: Does B15 bind [11]?
A: binds
